Key:
[1] = Golgi residence time, live imaging with CHX; settings: glycan lost; control: DMSO
[2] = immunofluorescence, colocalisation with GM130; settings: glycan lost; control: DMSO

Substance: transferrin receptor (TfR): GalNAc-O-Bn
- localisation_or_trafficking [1]: increases
- localisation_or_trafficking [2]: changes

— paper PMC7586228
